Assay results published in the supplement of paper PMC7125110.
± gives the standard error. Variants at the floor of the assay were thinned out.

B1: glmS ribozyme (parent)
chain: AUAAAAGCGCCAGAACUACAGAAAUGUAGUUGACGAGGAGGAGGUUUAUCGAAUUUUCGGCGGAUGCCUCCAAA

Columns and labels:
Details in all cases: with glucosamine-6-phosphate
glucosamine-6-phosphate [1] = variants of: B1; experiment: self-cleavage kobs at 160 uM GlcN6P; higher = faster cleavage; RNA array
Outline: (§1)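 Barcoded ribozyme variants, transcribed in situ by E. coli RNA polymerase on sequenced MiSeq chips, were followed via a hybridised Cy3 probe at 37 °C. Glucosamine-6-phosphate ranged from 40 μM to 10 mM in HEPES/KCl/Mg(OAc)2 buffer. kobs came from decay fits to per-tile medians, and kcat and KM from weighted Michaelis–Menten fits.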

glucosamine-6-phosphate [2] = variants of: B1; experiment: self-cleavage kobs at 640 uM GlcN6P; higher = faster cleavage; RNA array
Outline: as §1

glucosamine-6-phosphate [3] = variants of: B1; experiment: self-cleavage kobs at 2500 uM GlcN6P; higher = faster cleavage; RNA array
Outline: as §1

glucosamine-6-phosphate [4] = variants of: B1; experiment: self-cleavage kobs at 10000 uM GlcN6P; higher = faster cleavage; RNA array
Outline: as §1

Variant	self-cleavage kobs at 160 uM GlcN6P (glucosamine-6-phosphate [1]) [s⁻¹]	self-cleavage kobs at 640 uM GlcN6P (glucosamine-6-phosphate [2]) [s⁻¹]	self-cleavage kobs at 2500 uM GlcN6P (glucosamine-6-phosphate [3]) [s⁻¹]	self-cleavage kobs at 10000 uM GlcN6P (glucosamine-6-phosphate [4]) [s⁻¹]
C10G A48G A64U U65A	< 1e-05	< 1e-05	< 1e-05	–
C11U A42U G43U A53G C68G	0.0001 ± 3.7e-05	0.000213 ± 6.4e-05	0.0001 ± 3.5e-05	–
G13A A33C U55A	< 1e-05	< 1e-05	< 1e-05	–
C34G A64U C67U	< 1e-05	< 1e-05	–	–
C34A G66U	< 1e-05	< 1e-05	–	< 1e-05
G9U A48U C67G	< 1e-05	< 1e-05	< 1e-05	–
C11A U30C G62A	< 1e-05	< 1e-05	< 1e-05	–
A14C U30G A36U A53G	< 1e-05	< 1e-05	< 1e-05	–
A12G A15U A53C C67A	< 1e-05	–	–	–
G13A C50G C61G	0.000169 ± 2.6e-05	0.000203 ± 3.6e-05	0.000114 ± 2.2e-05	–
C11G A14G U31C A42G U56G A64U U65A	< 1e-05	< 1e-05	–	–
A14C A15C A48U	< 1e-05	–	–	–
U31A A33G A48G	< 1e-05	–	–	–
C19A U65A	0.000107 ± 4.8e-05	–	0.00137 ± 0.00051	–
A12C G29C A52C A64C	< 1e-05	< 1e-05	–	–
A36C A42G	< 1e-05	–	< 1e-05	< 1e-05
G13C A14G U55G G59U C68G	0.000122 ± 5.4e-05	0.000281 ± 7e-05	9.91e-05 ± 3.7e-05	–
C16A G38C C68U	< 1e-05	< 1e-05	–	–
G9C A33U A36G U45A A48C	< 1e-05	< 1e-05	< 1e-05	–
A36U G63U	< 1e-05	< 1e-05	< 1e-05	–
U30C U31G C50G C70G	0.000158 ± 4.4e-05	0.000289 ± 0.0001	0.00026 ± 5.8e-05	–
A12C A42C A52C C61U U69A	< 1e-05	–	–	–
G13C C34G G35C G43U A48C C67G C70U	< 1e-05	< 1e-05	–	–
C34U U49G A52U	< 1e-05	–	< 1e-05	< 1e-05
G37U C58A	< 1e-05	–	–	< 1e-05
C10A C11G A12C G13U	< 1e-05	–	< 1e-05	–
